Reference: article PMC5473807, “Distribution and kinetics of the Kv1.3-blocking peptide HsTX1[R14A] in experimental rats” (Scientific Reports, 2017)
Where two headings read alike, the source gives them in different places.

Assay: In vivo biodistribution by organ and tissue extraction
Parameters: species or system male Wistar rats
Conditions: male, Wistar, total radioactivity, rat; for SUV at 48 h / tissue uptake dose at 48 h: 2880 min p.i.; for SUV at 1 h / tissue uptake dose at 1 h: 60 min p.i.; for tissue uptake dose at 5 min / SUV at 5 min: 5 min p.i.; for dose excreted at 24 h: kidney and urine, read-out: renal elimination
Description: The present study includes data obtained from a total of 50 animals. Four animals (body weight 227 ± 10 g) for each time point were injected intravenously into a tail vein or subcutaneously with approximately 0.3 MBq ([…]) [^64Cu]Cu-NOTA-HsTX1[R14A] conjugate in 0.5 mL electrolyte solution E-153 (Serumwerk Bernburg, Germany). Animals were euthanised at 5, 60, 240, 1440 and 2880 min post-injection. Blood and the major organs were collected, weighed, and counted in a cross-calibrated γ-counter (Isomed 1000, Isomed GmbH, Dresden) and Wallac WIZARD Automatic Gamma Counter (PerkinElmer, Germany). The radioactivity of the tissue samples was decay-corrected and calibrated by comparing the counts in tissue with the counts in aliquots of the injected radiotracer that had been measured in the γ-counter at the same time. The activity in the selected organs was expressed as percent-injected dose per organ (% ID) and the activity concentration in tissues and organs as standardised uptake value (SUV). Values are quoted as mean ± standard error of mean (SEM) for each group of four animals.

[1] = femur, sc, 0.3 MBq, s.c., mean ± SD, n=4, read-out: Femur SUV
[2] = femur, sc, 0.3 MBq, s.c., mean ± SD, n=4, read-out: Femur activity amount
[3] = heart, iv, 0.3 MBq, i.v., mean ± SD, n=4, read-out: Heart activity amount
[4] = heart, iv, i.v., mean ± SD, n=4, read-out: Heart SUV
[5] = heart, sc, 0.3 MBq, s.c., mean ± SD, n=4, read-out: Heart activity amount
[6] = heart, sc, s.c., mean ± SD, n=4, read-out: Heart SUV
[7] = intestine, iv, 0.3 MBq, i.v., mean ± SD, n=4, read-out: Intestine activity amount
[8] = intestine, sc, 0.3 MBq, s.c., mean ± SD, n=4, read-out: Intestine activity amount
[9] = kidneys, iv, 0.3 MBq, i.v., mean ± SD, n=4, read-out: Kidneys SUV
[10] = kidneys, iv, 0.3 MBq, i.v., mean ± SD, n=4, read-out: Kidneys activity amount
[11] = kidneys, sc, 0.3 MBq, s.c., mean ± SD, n=4, read-out: Kidneys SUV
[12] = kidneys, sc, 0.3 MBq, s.c., mean ± SD, n=4, read-out: Kidneys activity amount
[13] = liver, iv, 0.3 MBq, i.v., mean ± SD, n=4, read-out: Liver SUV
[14] = liver, iv, 0.3 MBq, i.v., mean ± SD, n=4, read-out: Liver activity amount
[15] = liver, sc, 0.3 MBq, s.c., mean ± SD, n=4, read-out: Liver SUV

## CSCC[C@@H]1NC(=O)[C@@H]2CSSC[C@H](NC(=O)[C@H](CO)NC(=O)[C@H](C)NC(=O)COCCOCCNC(=O)CN3CCN(CC(=O)O)CCN(CC(=O)O)CC3)C(=O)N[C@@H](CCCNC(=N)N)C(=O)N[C@@H]([C@@H](C)O)C(=O)N3CCC[C@H]3C(=O)N[C@@H](CCCCN)C(=O)N[C@@H](CC(=O)O)C(=O)N[C@H]3CSSC[C@H](NC(=O)[C@H](CCCCN)NC(=O)[C@H](CCCNC(=N)N)NC(=O)[C@H](CC(N)=O)NC1=O)C(=O)N[C@@H](CCCCN)C(=O)N[C@H]1CSSC[C@H](NC(=O)[C@@H]4CCCN4C(=O)[C@H](CC(=O)O)NC(=O)[C@H](C)NC3=O)C(=O)N[C@@H](C)C(=O)N[C@@H](CCCCN)C(=O)N[C@@H](CCC(=O)O)C(=O)N[C@@H]([C@@H](C)O)C(=O)NCC(=O)N[C@@H](CSSC[C@@H](C(N)=O)NC(=O)[C@H](CCCNC(=N)N)NC(=O)[C@H](CC(N)=O)NC1=O)C(=O)N1CCC[C@H]1C(=O)N[C@@H](Cc1ccc(O)cc1)C(=O)NCC(=O)N[C@@H](CCCCN)C(=O)N2 [[^64Cu]Cu-NOTA-HsTX1[R14A], metal not drawn]
femur, iv, 0.3 MBq, i.v., mean ± SD, n=4, read-out: Femur SUV
  SUV at 48 h: 0.39 ± 0.02 SUV
femur, iv, 0.3 MBq, i.v., mean ± SD, n=4, read-out: Femur activity amount
  tissue uptake dose at 48 h: 0.23 ± 0.01 %ID
[1]
  SUV at 1 h: 1.25 ± 0.07 SUV
  SUV at 48 h: 0.34 ± 0.02 SUV
[2]
  tissue uptake dose at 1 h: 0.82 ± 0.04 %ID
  tissue uptake dose at 48 h: 0.19 ± 0.02 %ID
femur, sc, 0.3 MBq, s.c., 240 min p.i., mean ± SD, n=4, read-out: Femur SUV
  SUV at 4 h: 0.92 ± 0.08 SUV
femur, sc, 0.3 MBq, s.c., 240 min p.i., mean ± SD, n=4, read-out: Femur activity amount
  tissue uptake dose at 4 h: 0.64 ± 0.02 %ID
femur, sc, 0.3 MBq, s.c., 1440 min p.i., mean ± SD, n=4, read-out: Femur SUV
  SUV at 24 h: 0.47 ± 0.02 SUV
femur, sc, 0.3 MBq, s.c., 1440 min p.i., mean ± SD, n=4, read-out: Femur activity amount
  tissue uptake dose at 24 h: 0.34 ± 0.01 %ID
[3]
  tissue uptake dose at 5 min: 0.33 ± 0.04 %ID
  tissue uptake dose at 48 h: 0.27 ± 0.04 %ID
heart, iv, 0.3 MBq, i.v., mean ± SD, n=8, read-out: Heart activity amount
  tissue uptake dose at 1 h: 0.21 ± 0.06 %ID
heart, iv, 0.3 MBq, i.v., 240 min p.i., mean ± SD, n=4, read-out: Heart activity amount
  tissue uptake dose at 4 h: 0.19 ± 0.03 %ID
heart, iv, 0.3 MBq, i.v., 1440 min p.i., mean ± SD, n=8, read-out: Heart activity amount
  tissue uptake dose at 24 h: 0.23 ± 0.02 %ID
[4]
  SUV at 5 min: 1.04 ± 0.14 SUV
  SUV at 48 h: 0.64 ± 0.06 SUV
heart, iv, i.v., mean ± SD, n=8, read-out: Heart SUV
  SUV at 1 h: 0.53 ± 0.08 SUV
heart, iv, i.v., 240 min p.i., mean ± SD, n=4, read-out: Heart SUV
  SUV at 4 h: 0.4 ± 0.07 SUV
heart, iv, i.v., 1440 min p.i., mean ± SD, n=8, read-out: Heart SUV
  SUV at 24 h: 0.62 ± 0.07 SUV
[5]
  tissue uptake dose at 1 h: 0.32 ± 0.02 %ID
  tissue uptake dose at 48 h: 0.22 ± 0.01 %ID
heart, sc, 0.3 MBq, s.c., 240 min p.i., mean ± SD, n=4, read-out: Heart activity amount
  tissue uptake dose at 4 h: 0.18 ± 0.03 %ID
heart, sc, 0.3 MBq, s.c., 1440 min p.i., mean ± SD, n=4, read-out: Heart activity amount
  tissue uptake dose at 24 h: 0.23 ± 0.01 %ID
[6]
  SUV at 1 h: 0.7 ± 0.03 SUV
  SUV at 48 h: 0.57 ± 0.04 SUV
heart, sc, s.c., 240 min p.i., mean ± SD, n=4, read-out: Heart SUV
  SUV at 4 h: 0.41 ± 0.06 SUV
heart, sc, s.c., 1440 min p.i., mean ± SD, n=4, read-out: Heart SUV
  SUV at 24 h: 0.53 ± 0.02 SUV
[7]
  tissue uptake dose at 5 min: 3.59 ± 2.4 %ID
  tissue uptake dose at 48 h: 8.27 ± 1.01 %ID
intestine, iv, 0.3 MBq, i.v., mean ± SD, n=8, read-out: Intestine activity amount
  tissue uptake dose at 1 h: 5.3 ± 2.31 %ID
intestine, iv, 0.3 MBq, i.v., 240 min p.i., mean ± SD, n=4, read-out: Intestine activity amount
  tissue uptake dose at 4 h: 4.61 ± 1.84 %ID
intestine, iv, 0.3 MBq, i.v., 1440 min p.i., mean ± SD, n=8, read-out: Intestine activity amount
  tissue uptake dose at 24 h: 16.5 ± 2.32 %ID
[8]
  tissue uptake dose at 1 h: 7.85 ± 3.82 %ID
  tissue uptake dose at 48 h: 8.16 ± 1.02 %ID
intestine, sc, 0.3 MBq, s.c., 240 min p.i., mean ± SD, n=4, read-out: Intestine activity amount
  tissue uptake dose at 4 h: 4.65 ± 1.73 %ID
intestine, sc, 0.3 MBq, s.c., 1440 min p.i., mean ± SD, n=4, read-out: Intestine activity amount
  tissue uptake dose at 24 h: 19.3 ± 1.35 %ID
iv, 0.3 MBq, i.v., one day after injection
  dose excreted at 24 h: 48 ± 3%
sc, 0.3 MBq, s.c., one day after injection
  dose excreted at 24 h: 51 ± 2%
[9]
  SUV at 5 min: 35.1 ± 6.82 SUV
  SUV at 48 h: 6.37 ± 0.59 SUV
[10]
  tissue uptake dose at 5 min: 23.9 ± 3.93 %ID
  tissue uptake dose at 48 h: 6.19 ± 0.49 %ID
kidneys, iv, 0.3 MBq, i.v., mean ± SD, n=8, read-out: Kidneys SUV
  SUV at 1 h: 78.4 ± 13.6 SUV
kidneys, iv, 0.3 MBq, i.v., mean ± SD, n=8, read-out: Kidneys activity amount
  tissue uptake dose at 1 h: 61.6 ± 4.21 %ID
kidneys, iv, 0.3 MBq, i.v., 240 min p.i., mean ± SD, n=4, read-out: Kidneys SUV
  SUV at 4 h: 68.4 ± 4.28 SUV
kidneys, iv, 0.3 MBq, i.v., 240 min p.i., mean ± SD, n=4, read-out: Kidneys activity amount
  tissue uptake dose at 4 h: 63.1 ± 0.97 %ID
kidneys, iv, 0.3 MBq, i.v., 1440 min p.i., mean ± SD, n=8, read-out: Kidneys SUV
  SUV at 24 h: 18 ± 5.32 SUV
kidneys, iv, 0.3 MBq, i.v., 1440 min p.i., mean ± SD, n=8, read-out: Kidneys activity amount
  tissue uptake dose at 24 h: 14.2 ± 2.04 %ID
[11]
  SUV at 1 h: 58.1 ± 5.55 SUV
  SUV at 48 h: 5.98 ± 1.08 SUV
[12]
  tissue uptake dose at 1 h: 53.3 ± 4.9 %ID
  tissue uptake dose at 48 h: 4.95 ± 0.49 %ID
kidneys, sc, 0.3 MBq, s.c., 240 min p.i., mean ± SD, n=4, read-out: Kidneys SUV
  SUV at 4 h: 70.2 ± 4.14 SUV
kidneys, sc, 0.3 MBq, s.c., 240 min p.i., mean ± SD, n=4, read-out: Kidneys activity amount
  tissue uptake dose at 4 h: 62.5 ± 2.36 %ID
kidneys, sc, 0.3 MBq, s.c., 1440 min p.i., mean ± SD, n=4, read-out: Kidneys SUV
  SUV at 24 h: 14.4 ± 1.32 SUV
kidneys, sc, 0.3 MBq, s.c., 1440 min p.i., mean ± SD, n=4, read-out: Kidneys activity amount
  tissue uptake dose at 24 h: 13.6 ± 1.1 %ID
Liver and intestine, iv, 0.3 MBq, i.v., 4 h, read-out: activity in the liver and intestine
  tissue uptake dose at 4 h: 12 ± 3 %ID
Liver and intestine, iv, 0.3 MBq, i.v., one day after injection, read-out: hepatobiliary elimination, maximum
  tissue uptake dose at 24 h: 31 ± 3 %ID
Liver and intestine, sc, 0.3 MBq, s.c., 4 h, read-out: activity in the liver and intestine
  tissue uptake dose at 4 h: 11.4 ± 4 %ID
Liver and intestine, sc, 0.3 MBq, s.c., one day after injection, read-out: hepatobiliary elimination, maximum
  tissue uptake dose at 24 h: 30 ± 3 %ID
[13]
  SUV at 5 min: 1.02 ± 0.53 SUV
  SUV at 48 h: 1.45 ± 0.13 SUV
[14]
  tissue uptake dose at 5 min: 4.6 ± 2.22 %ID
  tissue uptake dose at 48 h: 8.35 ± 0.95 %ID
liver, iv, 0.3 MBq, i.v., mean ± SD, n=8, read-out: Liver SUV
  SUV at 1 h: 1.24 ± 0.31 SUV
liver, iv, 0.3 MBq, i.v., mean ± SD, n=8, read-out: Liver activity amount
  tissue uptake dose at 1 h: 5.43 ± 1.44 %ID
liver, iv, 0.3 MBq, i.v., 240 min p.i., mean ± SD, n=4, read-out: Liver SUV
  SUV at 4 h: 1.78 ± 0.45 SUV
liver, iv, 0.3 MBq, i.v., 240 min p.i., mean ± SD, n=4, read-out: Liver activity amount
  tissue uptake dose at 4 h: 7.01 ± 1.47 %ID
liver, iv, 0.3 MBq, i.v., 1440 min p.i., mean ± SD, n=8, read-out: Liver SUV
  SUV at 24 h: 2.93 ± 0.78 SUV
liver, iv, 0.3 MBq, i.v., 1440 min p.i., mean ± SD, n=8, read-out: Liver activity amount
  tissue uptake dose at 24 h: 14.8 ± 2.42 %ID
[15]
  SUV at 1 h: 1.13 ± 0.23 SUV
  SUV at 48 h: 1.4 ± 0.08 SUV
liver, sc, 0.3 MBq, s.c., mean ± SD, n=4, read-out: Liver activity amount
  tissue uptake dose at 1 h: 4.44 ± 0.74 %ID
liver, sc, 0.3 MBq, s.c., 240 min p.i., mean ± SD, n=4, read-out: Liver SUV
  SUV at 4 h: 1.75 ± 0.63 SUV
liver, sc, 0.3 MBq, s.c., 240 min p.i., mean ± SD, n=4, read-out: Liver activity amount
  tissue uptake dose at 4 h: 6.79 ± 2.27 %ID
liver, sc, 0.3 MBq, s.c., 1440 min p.i., mean ± SD, n=4, read-out: Liver SUV
  SUV at 24 h: 2.23 ± 0.32 SUV
liver, sc, 0.3 MBq, s.c., 1440 min p.i., mean ± SD, n=4, read-out: Liver activity amount
  tissue uptake dose at 24 h: 11.1 ± 1.82 %ID
